Results reported in patent publication US20110257105A1 (CARA THERAPEUTICS, published 2011).
Square brackets hold non-standard residues; d marks the D form. Ends that are not written are not given here. dAgb = N=C(N)NCC[C@@H](N)C(=O)O; dNle = CCCC[C@@H](N)C(=O)O

Experiments:
[1] = target: mouse kappa opioid receptor (mouse) (UniProt P33534); assay: cell-based or functional assay
[2] = target: mouse kappa opioid receptor (mouse, UniProt P33534 1-380); assay: cell-based or functional assay
Chain of mouse kappa opioid receptor (P33534 whole entry): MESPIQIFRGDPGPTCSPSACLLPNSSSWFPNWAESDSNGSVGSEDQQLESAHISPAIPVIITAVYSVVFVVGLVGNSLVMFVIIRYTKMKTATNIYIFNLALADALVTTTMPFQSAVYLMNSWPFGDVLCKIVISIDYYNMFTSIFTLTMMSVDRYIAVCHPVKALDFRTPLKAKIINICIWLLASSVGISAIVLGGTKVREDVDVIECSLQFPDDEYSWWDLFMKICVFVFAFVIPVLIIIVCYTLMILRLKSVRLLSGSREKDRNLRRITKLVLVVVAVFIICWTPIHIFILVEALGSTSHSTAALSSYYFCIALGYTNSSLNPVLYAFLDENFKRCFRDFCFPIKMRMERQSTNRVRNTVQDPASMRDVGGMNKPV

Chain of mouse kappa opioid receptor (mouse) (P33534 whole entry): as above

Molecule | EC50 (nM), cAMP inhibition in R1.G1 cells [1] [nM] | Efficacy(%), cAMP inhibition in R1.G1 cells [1] [%] | EC50 (nM), cAMP inhibition in R1.G1 cells [2] [nM] | Efficacy(%), cAMP inhibition in R1.G1 cells [2] [%]
Compound (39): D-Phe-D-Phe-D-Leu-D-Orn-[eLys(D-Orn-D-Leu-H)]-OH (peptide) | 67.3 | 35 | – | –
[dF][dF][dNle][dR][dP]-OH (N-terminus assumed; SMILES CCCC[C@@H](NC(=O)[C@@H](Cc1ccccc1)NC(=O)[C@H](N)Cc1ccccc1)C(=O)N[C@H](CCCNC(=N)N)C(=O)N1CCC[C@@H]1C(=O)O) [Compound (3): D-Phe-D-Phe-D-Nle-D-Arg-D-Pro-OH] | – | – | 9.05 | 88
[dF][dF][dL][dAgb]-{4‑amino‑4‑carboxylic piperidine} (also: two identical chains joined through C-termini to N1 and 4-amino group of piperidine scaffold) [Compound (51): 1N,4N-bis-(D-Phe-D-Phe-D-Leu-D-Nar)-4-amino-4-carboxylic piperidine] | – | – | 95.8 | 60
[dF][dF][dL][dK]G (not fully specified (bridges); printed as D-Phe-D-Phe-D-Leu-(D-Lys-GlyLactam)2-D-Leu-D-Phe-D-Phe; also: two chains joined through (D-Lys-Gly lactam)2 linker) [Compound (52): D-Phe-D-Phe-D-Leu-(D-Lys-GlyLactam)2-D-Leu-D-Phe-D-Phe] | 13.8 | 76 | – | –
[dF][dF][dL][dOrn(iPr)]-{4‑amino‑4‑carboxylic piperidine} (also: two identical chains joined through C-termini to N1 and 4-amino group of piperidine scaffold) [Compound (49): 1N,4N-bis-[D-Phe-D-Phe-D-Leu-(iPr)D-Orn]-4-amino-4-carboxylic-piperidine] | – | – | 1.83 | 50
[dF][dF][dL][dDap(amidino)]-{4‑amino‑4‑carboxylic piperidine} (also: two identical chains joined through C-termini to N1 and 4-amino group of piperidine scaffold) [Compound (50): 1N,4N-bis-[D-Phe-D-Phe-D-Leu-D-Dap(amidino)]-4-amino-4-carboxylic piperidine] | – | – | 56.7 | 77
